Paper PMC1514790, “Tomosyn Inhibits Synaptic Vesicle Priming in Caenorhabditis elegans” (PLoS Biology, 2006)

Target: T1, C. elegans syntaxin-GST (UNC-64 cytoplasmic domain, aa 1-266) (C. elegans, UniProt O16000 1-266)
T1 construct: C. elegans syntaxin (UNC-64), cytoplasmic domain aa 1-266, lacking the TM domain, cloned into pGEX-2T; pGEX-2T normally puts GST at the N-terminus (surmise); also called GST syntaxin; source: recombinant, batch-purified with glutathione agarose under native conditions
T1 sequence (looked up): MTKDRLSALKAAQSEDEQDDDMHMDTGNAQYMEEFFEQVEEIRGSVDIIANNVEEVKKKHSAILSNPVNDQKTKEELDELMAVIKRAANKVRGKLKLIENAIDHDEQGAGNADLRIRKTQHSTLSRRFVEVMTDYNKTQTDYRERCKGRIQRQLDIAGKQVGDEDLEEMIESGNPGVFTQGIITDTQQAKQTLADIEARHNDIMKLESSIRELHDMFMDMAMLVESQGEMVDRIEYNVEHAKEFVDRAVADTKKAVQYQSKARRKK
Assay: pull-down; ~1.6 uM each of C. elegans syntaxin-GST, rat SNAP-25-His6 and His6-TOM-1Ct or His6-SNB-1, 2 h to overnight at 4 °C in D-buffer, isolated on glutathione agarose; Coomassie Blue staining, densitometry
Details: both partners purified

- binding result: binds
B1: C. elegans synaptobrevin SNB-1 cytoplasmic domain (aa 1-88), His6T7-tagged (domain or fragment, UniProt O02495 1-88, looked up)
chain: MDAQGDAGAQGGSQGGPRPSNKRLQQTQAQVDEVVGIMKVNVEKVLERDQKLSQLDDRADALQEGASQFEKSAATLKRKYWWKNIKMM
notes: C. elegans synaptobrevin (SNB-1), cytoplasmic domain aa 1-88, lacking the TM domain, cloned into pRSETC; also called His6T7-tagged SNB-1; His6-SNB-1; source: recombinant, purified (Ni-NTA agarose)
